Measurements taken from PMC11215725, “A Potent Sybody Selectively Inhibits α-Synuclein Amyloid Formation by Binding to the P1 Region” (Journal of Medicinal Chemistry, 2024).
* marks the point of attachment. Biotin = O=C1N[C@H]2[C@H](CS[C@H]2CCCCC(=O)*)N1

Columns and labels:
[1] = target: WT α-syn samples collected after aggregation for 48 h (Homo sapiens (Human)., UniProt P37840); assay: ELISA; indirect ELISA: aliquots of a 20 μM WT α-syn aggregation taken at 0, 5, 10, 24 and 48 h coated on the plate, 2 μM αSP1, detection by anti-six-His HRP; conditions: both partners purified
[2] = target: WT α-syn stabilized oligomers (Homo sapiens (Human)., UniProt P37840); assay: ELISA; 80 pmol αSP1 immobilised on the plate, 160 pmol of each α-syn species added, detection by anti-α-syn-HRP; blocking with 5% goat serum in TBS; conditions: both partners purified
[3] = target: T1, synthetic peptide with the sequence of P1 from α-syn (Homo sapiens (Human)., SMILES CC(C)C[C@H](NC(=O)[C@@H](NC(=O)CNC(=O)CCCC[C@@H]1SC[C@@H]2NC(=O)N[C@@H]21)C(C)C)C(=O)N[C@@H](Cc1ccc(O)cc1)C(=O)N[C@H](C(=O)NCC(=O)N[C@@H](CO)C(N)=O)C(C)C); assay: ELISA; screen in 96 wells: protein A coated, anti-c-Myc antibody, sybody from diluted periplasmic extract captured, then 500 nM biotinylated peptide, streptavidin-HRP; TBS with 0.5% BSA; OD 650 nm; conditions: one partner purified
T1 construct: P1 region of α-synuclein, residues 36-42; also called P1 peptide; peptide P1; source: synthetic peptide, bought: GenScript
T1 chain: Biotin-GVLYVGS-NH2

[4] = target: wild-type α-synuclein, monomeric (UniProt P37840); assay: ELISA; indirect ELISA: 30 μM WT or ΔP1 α-syn monomers coated on MaxiSorp plate, 1-10 μM αSP1 for 1 h at room temperature, detection by anti-six-His HRP; TBS; conditions: both partners purified

binding result [1]: binds
binding result [2]: binds
binding result [4]: binds
B1: sybody αSP1 (VHH)
VHH: QVQLVESGGGLVQAGGSLRLSCAASGFPVRHQWMEWYRQAPGKEREWVAAISSFGQWTKYADSVKGRFTISRDNAKNTVYLQMNSLKPEDTAVYYCVVEVGYEYYGQGTQVTVSA
notes: His35 stands in CDR1; Synthetic single-domain antibody; results: NTA-Alexa Fluor 647; this is not a covalent change of a residue; also called aSP1; source: in periplasmic extract for the screen; purified (Ni-NTA, SEC) for all other experiments; not shown: Myc, C-terminal, kept; His tag, C-terminal, kept
binding result [3]: binds
